Publication PMC11927755

Target: preformed microtubules (polymerized tubulin, paclitaxel-stabilised) (UniProt P02550)
Assay: co-sedimentation; microtubule spin-down: 1 μM tau with paclitaxel-stabilised preformed microtubules in general tubulin buffer (80 mM PIPES pH 7.0, 1 mM MgCl2, 1 mM EGTA), 30 min at RT, through a sucrose cushion at 100,000 RCF for 40 min, pellet washed twice; tau (Tau5) and tubulin (5H1) in supernatant and pellet by Western blot; % tau in pellet

Sequence of UniProt P02550 (P02550 whole entry, looked up): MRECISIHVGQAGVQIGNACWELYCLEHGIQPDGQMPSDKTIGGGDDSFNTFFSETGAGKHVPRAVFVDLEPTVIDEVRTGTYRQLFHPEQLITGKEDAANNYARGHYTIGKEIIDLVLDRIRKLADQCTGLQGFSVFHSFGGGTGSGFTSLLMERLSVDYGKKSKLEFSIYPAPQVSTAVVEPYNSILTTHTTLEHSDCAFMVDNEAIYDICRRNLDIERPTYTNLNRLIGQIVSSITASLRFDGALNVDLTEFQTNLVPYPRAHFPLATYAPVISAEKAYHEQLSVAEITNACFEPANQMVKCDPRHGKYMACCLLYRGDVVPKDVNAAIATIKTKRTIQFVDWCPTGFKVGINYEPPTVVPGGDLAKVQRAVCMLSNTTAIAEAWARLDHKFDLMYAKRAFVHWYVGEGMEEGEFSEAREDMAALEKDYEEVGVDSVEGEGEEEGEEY

With “O-GlcNAc modified hT39 (Glc hT39, 2N3R tau) (from UniProt P10636-5 1-410) (natural protein)” the percent decrease of tau in the pelleted microtubule fraction relative to unmodified hT39 was 45%.
